In publication PMC2173270 (The Journal of Cell Biology, 2002):
No end group written: not given here. *: point of attachment. Biotin = O=C1N[C@H]2[C@H](CS[C@H]2CCCCC(=O)*)N1

T1: p115 (rat, UniProt P41542 1-959)
T1 sequence: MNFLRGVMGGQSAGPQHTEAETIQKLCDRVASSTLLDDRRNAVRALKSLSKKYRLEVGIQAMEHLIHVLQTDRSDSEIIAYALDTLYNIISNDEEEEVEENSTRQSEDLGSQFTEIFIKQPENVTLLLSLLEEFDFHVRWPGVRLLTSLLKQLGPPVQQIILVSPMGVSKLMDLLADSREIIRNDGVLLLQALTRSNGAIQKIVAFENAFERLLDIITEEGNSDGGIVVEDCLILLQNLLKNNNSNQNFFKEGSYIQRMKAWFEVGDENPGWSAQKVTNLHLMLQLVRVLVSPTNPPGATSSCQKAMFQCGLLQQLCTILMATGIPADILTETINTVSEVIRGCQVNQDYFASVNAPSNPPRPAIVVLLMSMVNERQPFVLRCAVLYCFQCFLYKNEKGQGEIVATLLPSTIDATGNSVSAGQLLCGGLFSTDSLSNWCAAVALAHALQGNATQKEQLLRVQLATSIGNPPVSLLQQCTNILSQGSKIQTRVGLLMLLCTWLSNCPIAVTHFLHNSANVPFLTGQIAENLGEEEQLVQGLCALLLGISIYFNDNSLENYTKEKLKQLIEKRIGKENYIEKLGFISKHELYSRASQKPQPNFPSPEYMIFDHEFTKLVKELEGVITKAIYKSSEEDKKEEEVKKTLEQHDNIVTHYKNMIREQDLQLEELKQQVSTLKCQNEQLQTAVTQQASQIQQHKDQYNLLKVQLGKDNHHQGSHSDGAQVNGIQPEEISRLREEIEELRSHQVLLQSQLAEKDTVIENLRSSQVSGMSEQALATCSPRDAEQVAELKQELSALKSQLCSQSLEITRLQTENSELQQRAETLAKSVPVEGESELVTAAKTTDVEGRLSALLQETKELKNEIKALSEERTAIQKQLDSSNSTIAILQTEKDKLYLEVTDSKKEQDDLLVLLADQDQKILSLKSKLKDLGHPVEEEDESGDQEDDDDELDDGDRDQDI

T2: GS15 (endogenous) (rat (endogenous in rat liver Golgi …, UniProt O35152 1-111))
T2 sequence: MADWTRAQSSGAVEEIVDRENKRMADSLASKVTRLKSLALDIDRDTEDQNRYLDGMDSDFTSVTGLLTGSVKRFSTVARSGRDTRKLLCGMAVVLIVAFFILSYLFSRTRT

B1: GST–syntaxin-5 (domain or fragment)
chain: MIPRKRYGSKNTDQGVYLGLSKTQVLSPATAINSSSDIAPLPTPVALVPSPPDTMSCRDRTQEFLSACKSLQSRQNGIQTNKPALHATRQCSEFTLMARRIGKDLSNTFAKLEKLTILAKRKSLFDDKAVEIEELTYIIKQDINSLNKQIAQLQDFVRAKGSQSGRHLQTHSNTIVVSLQSKLASMSNDFKSVLEVRTENLKQQRNRREQFSRAPVSALPLAPNNLGGGPIVLGGESRASRDVAIDMMDPRTSQQLQLIDEQDSYIQSRADTMQNIESTIVELGSIFQQLAHMVKEQEETIQRIDENVLGAQLDVEAAHSEILKYFQSVTSNR
B2: His–GOS-28 (domain or fragment)
chain: AAGTSNYWEDLRKQARQLENELDLKLVSFSKLCTSYSHSSARDGGRDRYSSDTTPLLNGSSQDRMFETMAIEIEQLLARLTGVNDKMAEYTHSAGVPSLNAALMHTLQRHRDILQDYTHEFHKTKANFMAIRERENLMGSVRKDIESYKSGSGVNNRRTELFLKEHDHLRNSDRLIEETISIAMATKENMTSQRGMLKSIHSKMNTLANRFPAVNSLIQRINLRKRRD
B3: CC1 (aa 637–699 of rat p115) (peptide)
peptide: Biotin-KEEEVKKTLEQHDNIVTHYKNMIREQDLQLEELKQQVSTLKCQNEQLQTAVTQQASQIQQHKD
B4: CC4 (aa 843–930 of rat p115) (peptide)
peptide: TTDVEGRLSALLQETKELKNEIKALSEERTAIQKQLDSSNSTIAILQTEKDKLYLEVTDSKKEQDDLLVLLADQDQKILSLKSKLKDL
modifications: NH2-terminally biotinylated
B5: Ykt6p (endogenous) (natural protein)
chain: MKLYSLSVFYKGEPKAVLLKAAYDVSSFSFFQRSSVQEFMTFTSQLIVERSAKGSRASVKEQEYLCHVYVRSDSLAGVVIADSEYPSRVAFTLLEKVLDEFSKQVDRIDWPVGSPATIHYTALDGHLSRYQNPREADPMSKVQAELDETKIILHNTMESLLERGEKLDDLVSKSEVLGTQSKAFYKTARKQNSCCAIM
B6: GOS-28 (endogenous) (natural protein)
chain: MAAGTSNYWEDLRKQARQLENELDLKLVSFSKLCTSYSHSSARDGGRDRYSSDTTPLLNGSSQDRMFETMAIEIEQLLARLTGVNDKMAEYTHSAGVPSLNAALMHTLQRHRDILQDYTHEFHKTKANFMAIRERENLMGSVRKDIESYKSGSGVNNRRTELFLKEHDHLRNSDRLIEETISIAMATKENMTSQRGMLKSIHSKMNTLANRFPAVNSLIQRINLRKRRDSLILGGVIGICTILLLLYAFH
B7: syntaxin-5 (endogenous) (natural protein)
chain: MIPRKRYGSKNTDQGVYLGLSKTQVLSPATAINSSSDIAPLPTPVALVPSPPDTMSCRDRTQEFLSACKSLQSRQNGIQTNKPALHATRQCSEFTLMARRIGKDLSNTFAKLEKLTILAKRKSLFDDKAVEIEELTYIIKQDINSLNKQIAQLQDFVRAKGSQSGRHLQTHSNTIVVSLQSKLASMSNDFKSVLEVRTENLKQQRNRREQFSRAPVSALPLAPNNLGGGPIVLGGESRASRDVAIDMMDPRTSQQLQLIDEQDSYIQSRADTMQNIESTIVELGSIFQQLAHMVKEQEETIQRIDENVLGAQLDVEAAHSEILKYFQSVTSNRWLMVKIFLILIVFFIIFVVFLA

Columns and labels:
p115 = biological target: T1, p115; assay: pull-down
GST–syntaxin-5 = biological target: B1; assay: pull-down
[1] = biological target: the molecule itself; assay: SEC + other: laser light scattering + native gel or EMSA
GS15 (endogenous) = biological target: T2, GS15 (endogenous); assay: co-IP

Row | Binder | percent dimeric [1] [%] | percent tetrameric [1] [%] | fold enhancement of complex formation by p115 against no p115 (GS15 (endogenous)) [fold] | also measured
1 | B1 | – | – | – | Kd (p115): 1800 nM
2 | B2 | – | – | – | Kd (p115): 1500 nM; fold stimulation of the interaction by p115 against no p115 (GST–syntaxin-5): 4 fold
3 | B3 | ~20 | ~10 | – | –
4 | Biotin-QPEEISRLREEIEELRSHQVLLQSQLAEKDTVIENLRS [CC2 (aa 728–765 of rat p115)] | ~20 | ~10 | – | –
5 | Biotin-DAEQVAELKQELSALKSQLCSQSLEITRLQTENSELQQRAETLAK [CC3 (aa 783–827 of rat p115)] | ~20 | ~10 | – | –
6 | B4 | ~20 | ~10 | – | –
7 | B5 | – | – | ~5 | –
8 | B6 | – | – | ~5 | –
9 | B7 | – | – | ~5 | –
